Experimental data from patent publication US20210388110A1 (published 2021).
Changes are numbered by the printed parent chain.

B1: TR01H055-E22Hh/none-Hi-Kn010G3/L0000-k0 (antibody, human IgG1, kappa, L234A L235A, N297A)
heavy: QVQLVESGGGLVQPGRSLRLSCAASGFTFSNAWMHWVRQAPGKGLEWVAQIKDKSNNYATYYAESVKGRFTISRDDSKNSLYLQMNSLKTEDTAVYYCRYVHYSASYGVDIWGQGTTVTVSSASTKGPSVFPLAPSSKSTSGGTAALGCLVKDYFPEPVTVSWNSGALTSGVHTFPAVLQSSGLYSLSSVVTVPSSSLGTQTYICNVNHKPSNTKVDKKVEPKSCDKTHTCPPCPAPEAAGGPSVFLFPPKPKDTLMISRTPEVTCVVVDVSHEDPEVKFNWYVDGVEVHNAKTKPREEQYASTYRVVSVLTVLHQDWLNGKEYKCKVSNKALPAPIEKTISKAKGQPREPQVYTLPPSRCELTKNQVSLSCAVKGFYPSDIAVEWESNGQPENNYKTTPPVLDSDGSFFLVSKLTVDKSRWQQGNVFSCSVMHEALHNHYTQKSLSLSPDYKDDDDK
chain: EPKSSDKTHTCPPCPAPELLGGPSVFLFPPKPKDTLMISRTPEVTCVVVDVSHEDPEVKFNWYVDGVEVHNAKTKPREEQYNSTYRVVSVLTVLHQDWLNGKEYKCKVSNKALPAPIEKTISKAKGQPREPQVCTLPPSRDELTKNQVSLWCLVKGFYPSDIAVEWESNGQPENNYKTTPPVLDSDGSFFLYSKLTVDKSRWQQGNVFSCSVMHEALHNRYTQKSLSLSP
light: DIVMTQSPLSLPVTPGEPASISCRSSQSLVHSNRNTYLHWYQQKPGQAPRLLIYKVSNRFSGVPDRFSGSGSGTDFTLKISRVEAEDVGVYYCGQGTQVPYTFGQGTKLEIKRTVAAPSVFIFPPSDEQLKSGTASVVCLLNNFYPREAKVQWKVDNALQSGNSQESVTEQDSKDSTYSLSSTLTLSKADYEKHKVYACEVTHQGLSSPVTKSFNRGEC
notes: single-arm
B2: TR01H071-E22Hh/none-Hi-Kn010G3/L0200-k0 (antibody, human IgG1, kappa, L234A L235A, N297A)
heavy: B1 heavy with D75A, L81I, S104A
chain: B1 chain
light: B1 light with S25P, L29P
notes: single-arm
B3: TR01H082-E22Hh/none-Hi-Kn010G3/L0203-k0 (antibody, human IgG1, kappa, L234A L235A, N297A)
heavy: B1 heavy with N56Q, S104A, S106G, I111A
chain: B1 chain
light: B1 light with L29P, L38I
notes: single-arm
B4: TR01H061-E22Hh/none-Hi-Kn010G3/L0000-k0 (antibody, human IgG1, kappa, L234A L235A, N297A)
heavy: B1 heavy with N56Q, D75A, L81I, S104A
chain: B1 chain
light: B1 light
notes: single-arm
B5: TR01H065-E22Hh/none-Hi-Kn010G3/L0000-k0 (antibody, human IgG1, kappa, L234A L235A, N297A)
heavy: B1 heavy with N56Q, L81I, S104A, I111A
chain: B1 chain
light: B1 light
notes: single-arm
B6: TR01H067-E22Hh/none-Hi-Kn010G3/TR01L019-k0 (antibody, human IgG1, kappa, L234A L235A, N297A)
heavy: B1 heavy with N56Q, S104A, I111A
chain: B1 chain
light: B1 light with R24Q, S25A, Q27E, L29P, Q42L, A48S, R50Q, G94Y
notes: single-arm
B7: TR01H071-E22Hh/none-Hi-Kn010G3/L0226-k0 (antibody, human IgG1, kappa, L234A L235A, N297A)
heavy: B1 heavy with D75A, L81I, S104A
chain: B1 chain
light: B1 light with L29P, L38I, G94I
notes: single-arm
B8: TR01H081-E22Hh/none-Hi-Kn010G3/L0201-k0 (antibody, human IgG1, kappa, L234A L235A, N297A)
heavy: B1 heavy with N56Q, D75A, L81I, S104A, S106G
chain: B1 chain
light: B1 light with S28P, L29P
notes: single-arm
B9: TR01H076-E22Hh/none-Hi-Kn010G3/L0000-k0 (antibody, human IgG1, kappa, L234A L235A, N297A)
heavy: B1 heavy with L11V, R16G, N56Q, D75A, L81I, S104A, I111Y
chain: B1 chain
light: B1 light
notes: single-arm
B10: TR01H067-E22Hh/none-Hi-Kn010G3/L0201-k0 (antibody, human IgG1, kappa, L234A L235A, N297A)
heavy: B1 heavy with N56Q, S104A, I111A
chain: B1 chain
light: B1 light with S28P, L29P
notes: single-arm
B11: TR01H082-E22Hh/none-Hi-Kn010G3/L0000-k0 (antibody, human IgG1, kappa, L234A L235A, N297A)
heavy: B1 heavy with N56Q, S104A, S106G, I111A
chain: B1 chain
light: B1 light
notes: single-arm
B12: TR01H071-E22Hh/none-Hi-Kn010G3/L0215-k0 (antibody, human IgG1, kappa, L234A L235A, N297A)
heavy: B1 heavy with D75A, L81I, S104A
chain: B1 chain
light: B1 light with S28P, L29P, L38I
notes: single-arm
B13: TR01H072-E22Hh/none-Hi-Kn010G3/L0000-k0 (antibody, human IgG1, kappa, L234A L235A, N297A)
heavy: B1 heavy with N56Q, D75A, L81I, S104A
chain: B1 chain
light: B1 light
notes: single-arm
B14: TR01H061-E22Hh/none-Hi-Kn010G3/L0215-k0 (antibody, human IgG1, kappa, L234A L235A, N297A)
heavy: B1 heavy with N56Q, D75A, L81I, S104A
chain: B1 chain
light: B1 light with S28P, L29P, L38I
notes: single-arm
B15: TR01H071-E22Hh/none-Hi-Kn010G3/L0000-k0 (antibody, human IgG1, kappa, L234A L235A, N297A)
heavy: B1 heavy with D75A, L81I, S104A
chain: B1 chain
light: B1 light
notes: single-arm
B16: TR01H066-E22Hh/none-Hi-Kn010G3/L0000-k0 (antibody, human IgG1, kappa, L234A L235A, N297A)
heavy: B1 heavy with N56Q, D75A, S104A, I111A
chain: B1 chain
light: B1 light
notes: single-arm
B17: TR01H082-E22Hh/none-Hi-Kn010G3/L0011-k0 (antibody, human IgG1, kappa, L234A L235A, N297A)
heavy: B1 heavy with N56Q, S104A, S106G, I111A
chain: B1 chain
light: B1 light with S28P
notes: single-arm
B18: TR01H064-E22Hh/none-Hi-Kn010G3/L0000-k0 (antibody, human IgG1, kappa, L234A L235A, N297A)
heavy: B1 heavy with A23S, N56Q, D75A, L81I, S104A, I111A
chain: B1 chain
light: B1 light
notes: single-arm
B19: TR01H073-E22Hh/none-Hi-Kn010G3/L0000-k0 (antibody, human IgG1, kappa, L234A L235A, N297A)
heavy: B1 heavy with N56Q, S104A
chain: B1 chain
light: B1 light
notes: single-arm
B20: TR01H067-E22Hh/none-Hi-Kn010G3/L0203-k0 (antibody, human IgG1, kappa, L234A L235A, N297A)
heavy: B1 heavy with N56Q, S104A, I111A
chain: B1 chain
light: B1 light with L29P, L38I
notes: single-arm
B21: TR01H061-E22Hh/none-Hi-Kn010G3/L0200-k0 (antibody, human IgG1, kappa, L234A L235A, N297A)
heavy: B1 heavy with N56Q, D75A, L81I, S104A
chain: B1 chain
light: B1 light with S25P, L29P
notes: single-arm
B22: TR01H067-E22Hh/none-Hi-Kn010G3/L0200-k0 (antibody, human IgG1, kappa, L234A L235A, N297A)
heavy: B1 heavy with N56Q, S104A, I111A
chain: B1 chain
light: B1 light with S25P, L29P
notes: single-arm
B23: TR01H063-E22Hh/none-Hi-Kn010G3/L0000-k0 (antibody, human IgG1, kappa, L234A L235A, N297A)
heavy: B1 heavy with L11V, R16G, N56Q, D75A, L81I, S104A, I111A
chain: B1 chain
light: B1 light
notes: single-arm
B24: TR01H067-E22Hh/none-Hi-Kn010G3/L0262-k0 (antibody, human IgG1, kappa, L234A L235A, N297A)
heavy: B1 heavy with N56Q, S104A, I111A
chain: B1 chain
light: B1 light with S28P, L29P, G94A
notes: single-arm
B25: TR01H081-E22Hh/none-Hi-Kn010G3/L0000-k0 (antibody, human IgG1, kappa, L234A L235A, N297A)
heavy: B1 heavy with N56Q, D75A, L81I, S104A, S106G
chain: B1 chain
light: B1 light
notes: single-arm
B26: TR01H062-E22Hh/none-Hi-Kn010G3/L0000-k0 (antibody, human IgG1, kappa, L234A L235A, N297A)
heavy: B1 heavy with N56Q, D75A, L81I, S104A, I111A
chain: B1 chain
light: B1 light
notes: single-arm
B27: TR01H061-E22Hh/none-Hi-Kn010G3/L0226-k0 (antibody, human IgG1, kappa, L234A L235A, N297A)
heavy: B1 heavy with N56Q, D75A, L81I, S104A
chain: B1 chain
light: B1 light with L29P, L38I, G94I
notes: single-arm
B28: TR01H074-E22Hh/none-Hi-Kn010G3/L0000-k0 (antibody, human IgG1, kappa, L234A L235A, N297A)
heavy: B1 heavy with L11V, R16G, N56Q, D75A, L81I, S104A
chain: B1 chain
light: B1 light
notes: single-arm
B29: TR01H067-E22Hh/none-Hi-Kn010G3/L0212-k0 (antibody, human IgG1, kappa, L234A L235A, N297A)
heavy: B1 heavy with N56Q, S104A, I111A
chain: B1 chain
light: B1 light with S25P, L29P, G94Y
notes: single-arm
B30: TR01H071-E22Hh/none-Hi-Kn010G3/L0222-k0 (antibody, human IgG1, kappa, L234A L235A, N297A)
heavy: B1 heavy with D75A, L81I, S104A
chain: B1 chain
light: B1 light with L29P, L38I, H39Q, G94Y
notes: single-arm
B31: TR01H061-E22Hh/none-Hi-Kn010G3/L0222-k0 (antibody, human IgG1, kappa, L234A L235A, N297A)
heavy: B1 heavy with N56Q, D75A, L81I, S104A
chain: B1 chain
light: B1 light with L29P, L38I, H39Q, G94Y
notes: single-arm
B32: TR01H081-E22Hh/none-Hi-Kn010G3/L0262-k0 (antibody, human IgG1, kappa, L234A L235A, N297A)
heavy: B1 heavy with N56Q, D75A, L81I, S104A, S106G
chain: B1 chain
light: B1 light with S28P, L29P, G94A
notes: single-arm
B33: TR01H082-E22Hh/none-Hi-Kn010G3/L0201-k0 (antibody, human IgG1, kappa, L234A L235A, N297A)
heavy: B1 heavy with N56Q, S104A, S106G, I111A
chain: B1 chain
light: B1 light with S28P, L29P
notes: single-arm
B34: TR01H067-E22Hh/none-Hi-Kn010G3/TR01L016-k0 (antibody, human IgG1, kappa, L234A L235A, N297A)
heavy: B1 heavy with N56Q, S104A, I111A
chain: B1 chain
light: B1 light with L29P, Q42L, A48S, R50Q, G94Y
notes: single-arm
B35: TR01H081-E22Hh/none-Hi-Kn010G3/L0011-k0 (antibody, human IgG1, kappa, L234A L235A, N297A)
heavy: B1 heavy with N56Q, D75A, L81I, S104A, S106G
chain: B1 chain
light: B1 light with S28P
notes: single-arm
B36: TR01H069-E22Hh/none-Hi-Kn010G3/L0000-k0 (antibody, human IgG1, kappa, L234A L235A, N297A)
heavy: B1 heavy with L11V, R16G, N56Q, S104A
chain: B1 chain
light: B1 light
notes: single-arm

Biological target: T1, soluble human CD3ε chain (human, UniProt P07766 23-126, limits assumed)
T1 construct: the text says soluble human CD3ε chain; also called human CD3 epsilon chain
Test: SPR (Biacore)

T1 sequence (P07766 23-126 limits assumed): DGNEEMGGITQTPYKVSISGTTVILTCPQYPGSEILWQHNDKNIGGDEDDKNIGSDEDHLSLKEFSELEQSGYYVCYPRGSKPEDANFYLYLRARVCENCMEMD

| Binder | Kd [nM] |
| --- | --- |
| B1 | 38.8 |
| B2 | 6.13 |
| B3 | 40.7 |
| B4 | 17.1 |
| B5 | 43.1 |
| B6 | 12.1 |
| B7 | 25.1 |
| B8 | 9.46 |
| B9 | 47.8 |
| B10 | 59.3 |
| B11 | 73.7 |
| B12 | 9.51 |
| B13 | 20.3 |
| B14 | 15.4 |
| B15 | 8.85 |
| B16 | 60.2 |
| B17 | 59.5 |
| B18 | 30.7 |

| Binder | Kd [nM] |
| --- | --- |
| B19 | 59.7 |
| B20 | 47.9 |
| B21 | 12.7 |
| B22 | 60.3 |
| B23 | 43.5 |
| B24 | 49.2 |
| B25 | 15.6 |
| B26 | 31.3 |
| B27 | 47.1 |
| B28 | 29.1 |
| B29 | 5.88 |
| B30 | 10.4 |
| B31 | 18.8 |
| B32 | 5.76 |
| B33 | 44.9 |
| B34 | 10.9 |
| B35 | 13.5 |
| B36 | 71.1 |
